Test results published in patent publication EP3271384B1 (dated 2023).

Biological target: T1, telomerase (hTERT) peptide on HLA-A*02:01 (human)
T1 peptide: RLVDDFLLV
Experiment: multimer staining

B1: TCR specific for the HLA-A2/hTERT865-873 complex (α5 and β3 chains, SEQ. ID. no. 1 and 2) (TCR, V domains shown)
Valpha: GEQVEQRPPHLSVREGDSAVIICTYTDPNSYYFFWYKQEPGAGLQLLMKVFSSTEINEGQGFTVLLNKKDKQLSLNLTAAHPGDSAVYFCAVRHDSGYNKLTFGKGTVLLVSP
Vbeta: NSKVIQTPRYLVKGQGQKAKMRCIPEKGHPVVFWYQQNKNNEFKFLINFQNQEVLQQIDMTEKRFSAECPSNSPCSLEIQSSEAGDSALYLCASSLSKGGFYEQYFGPGTRLTVL
B1: recognises.
